B1: DNA ligase 1 (LIG1), in MEFs (enzyme, mouse (endogenous in MEFs), UniProt P37913 1-916, looked up)
chain: MQRSIMSFFQPTKEGKAKKPEKETPSSIREKEPPPKVALKERNQVVPESDSPVKRTGRKVAQVLSCEGEDEDEAPGTPKVQKPVSDSEQSSPPSPDTCPENSPVFNCSSPMDISPSGFPKRRTARKQLPKRTIQDTLEEQNEDKTKTAKKRKKEEETPKESLAEAEDIKQKEEKEGDQLIVPSEPTKSPESVTLTKTENIPVCKAGVKLKPQEEEQSKPPARGAKTLSSFFTPRKPAVKTEVKQEESGTLRKEETKGTLDPANYNPSKNNYHPIEDACWKHGQKVPFLAVARTFEKIEEVSARLKMVETLSNLLRSVVALSPPDLLPVLYLSLNRLGPPQQGLELGVGDGVLLKAVAQATGRQLESIRAEVAEKGDVGLVAENSRSTQRLMLPPPPLTISGVFTKFCDIARLTGSASMAKKMDIIKGLFVACRHSEARYIARSLSGRLRLGLAEQSVLAALAQAVSLTPPGQEFPTVVVDAGKGKTAEARKMWLEEQGMILKQTFCEVPDLDRIIPVLLEHGLERLPEHCKLSPGVPLKPMLAHPTRGVSEVLKRFEEVDFTCEYKYDGQRAQIHVLEGGEVKIFSRNQEDNTGKYPDIISRIPKIKHPSVTSFILDTEAVAWDREKKQIQPFQVLTTRKRKEVDASEIQVQVCLYAFDLIYLNGESLVRQPLSRRRQLLRENFVETEGEFVFTTSLDTKDTEQIAEFLEQSVKDSCEGLMVKTLDVDATYEIAKRSHNWLKLKKDYLDGVGDTLDLVVIGAYLGRGKRAGRYGGFLLAAYDEESEELQAICKLGTGFSDEELEEHHQSLQALVLPTPRPYVRIDGAVAPDHWLDPSIVWEVKCADLSLSPIYPAARGLVDKEKGISLRFPRFIRVRKDKQPEQATTSNQVASLYRKQSQIQNQQSSDLDSDVEDY
notes: DNA ligase 1, mouse, endogenous in MEFs; source: endogenous, mouse embryonic fibroblasts (fixed cells)

How the values were obtained:
[1] = molecular target: DNA ligase 1 (LIG1), in MEFs (mouse (endogenous in MEFs)) (UniProt P37913); assay: proximity ligation; Duolink PLA on endogenous proteins in fixed FEN1 R192Q MEFs; foci per nucleus
[2] = molecular target: proliferating cell nuclear antigen (PCNA), in MEFs (mouse (endogenous in MEFs)) (UniProt P17918); assay: as above
[3] = molecular target: DNA ligase 1 (LIG1), in MEFs (mouse (endogenous in MEFs)) (UniProt P37913); assay: FRET or BRET; FRET microscopy in fixed FEN1 R192Q MEFs; Alexa Fluor 568 (donor) and Alexa Fluor 647 (acceptor) secondary antibodies; corrected FRET intensity at PCNA foci
[4] = molecular target: proliferating cell nuclear antigen (PCNA), in MEFs (mouse (endogenous in MEFs)) (UniProt P17918); assay: proximity ligation; Duolink PLA on endogenous proteins in fixed Jmjd1b-/- MEFs; foci per nucleus
[5] = molecular target: DNA ligase 1 (LIG1), in MEFs (mouse (endogenous in MEFs)) (UniProt P37913); assay: proximity ligation; Duolink PLA on endogenous proteins in fixed WT MEFs; foci per nucleus
[6] = molecular target: proliferating cell nuclear antigen (PCNA), in MEFs (mouse (endogenous in MEFs)) (UniProt P17918); assay: as above
[7] = molecular target: DNA ligase 1 (LIG1), in MEFs (mouse (endogenous in MEFs)) (UniProt P37913); assay: FRET or BRET; FRET microscopy in fixed WT MEFs; primary antibodies with Alexa Fluor 568 (donor) and Alexa Fluor 647 (acceptor) secondary antibodies; corrected FRET intensity at PCNA foci
[8] = molecular target: DNA ligase 1 (LIG1), in MEFs (mouse (endogenous in MEFs)) (UniProt P37913); assay: FRET or BRET; FRET microscopy in fixed Jmjd1b-/- MEFs; Alexa Fluor 568 (donor) and Alexa Fluor 647 (acceptor) secondary antibodies; corrected FRET intensity at PCNA foci
[9] = molecular target: T1, proliferating cell nuclear antigen (PCNA), in MEFs (mouse (endogenous in MEFs), UniProt P17918 1-261); assay: proximity ligation; Duolink PLA on endogenous proteins in fixed WT MEFs; foci per nucleus; details: partners not purified
T1 construct: PCNA, mouse, endogenous in MEFs; source: endogenous, mouse embryonic fibroblasts (fixed cells)

[10] = molecular target: B1; assay: as above; details: partners not purified
[11] = molecular target: Flap endonuclease 1 (FEN1), in MEFs (mouse (endogenous in MEFs)) (UniProt P39749); assay: as above
[12] = molecular target: Flap endonuclease 1 (FEN1), in MEFs (mouse (endogenous in MEFs)) (UniProt P39749); assay: FRET or BRET; FRET microscopy in fixed WT MEFs; primary antibodies with Alexa Fluor 568 (donor) and Alexa Fluor 647 (acceptor) secondary antibodies; corrected FRET intensity at PCNA foci

Chain of proliferating cell nuclear antigen (PCNA), in MEFs (mouse (endogenous in MEFs)) (P17918 whole entry): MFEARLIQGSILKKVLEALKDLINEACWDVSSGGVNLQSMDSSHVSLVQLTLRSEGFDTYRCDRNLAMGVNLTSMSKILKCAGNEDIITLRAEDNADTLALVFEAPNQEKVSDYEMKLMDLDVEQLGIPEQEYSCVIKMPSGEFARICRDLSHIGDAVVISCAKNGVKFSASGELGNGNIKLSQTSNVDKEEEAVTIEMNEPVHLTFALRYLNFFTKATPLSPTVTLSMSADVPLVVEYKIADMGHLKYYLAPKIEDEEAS
T1 sequence (P17918 whole entry): as above
Chain of Flap endonuclease 1 (FEN1), in MEFs (mouse (endogenous in MEFs)) (P39749 whole entry): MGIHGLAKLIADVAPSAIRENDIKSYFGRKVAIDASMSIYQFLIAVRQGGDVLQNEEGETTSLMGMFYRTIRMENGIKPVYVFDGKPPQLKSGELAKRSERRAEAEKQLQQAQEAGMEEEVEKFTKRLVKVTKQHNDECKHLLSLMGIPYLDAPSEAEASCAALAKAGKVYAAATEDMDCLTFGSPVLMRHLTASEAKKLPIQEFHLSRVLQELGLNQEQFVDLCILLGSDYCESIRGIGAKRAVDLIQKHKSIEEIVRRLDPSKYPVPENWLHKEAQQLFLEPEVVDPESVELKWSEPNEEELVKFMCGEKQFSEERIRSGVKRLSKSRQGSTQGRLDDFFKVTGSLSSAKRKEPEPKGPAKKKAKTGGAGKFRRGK

“FEN1 R192Q, in FEN1 R192Q MEFs (from UniProt P39749 1-378) (enzyme)” was tested, and the PLA foci per nucleus [1] was 9.8 foci/nucleus, the PLA foci per nucleus [2] was 31.7 foci/nucleus and the FEN1-LIG1 FRET level at PCNA foci, throughout S phase [3] was 2.

Molecule “Flap endonuclease 1 (FEN1), in MEFs (from UniProt P39749 1-378) (enzyme)” has a PLA foci per nucleus [4] of 76.2 foci/nucleus, a PLA foci per MEF (PLA foci per MEF) [5] of 20 and a PLA foci per nucleus [5] of 18.8 foci/nucleus. It also gave a PLA foci per MEF (PLA foci per MEF) [6] of 40, a PLA foci per nucleus [6] of 70.3 foci/nucleus and an FEN1-LIG1 FRET level at PCNA foci, throughout S phase [7] of 5.8. The FEN1-LIG1 FRET signal at PCNA foci, early middle S phase [7] was 5.6, the FEN1-LIG1 FRET signal at PCNA foci, late S phase [7] was 6.3 and the FRET signal (corrected FRET intensity at PCNA foci) [7] was 18.6. The FEN1-LIG1 FRET signal at PCNA foci, early middle S phase [8] was 4.8 and the FEN1-LIG1 FRET signal at PCNA foci, late S phase [8] was 7.4.

With B1 the “PLA foci per MEF” value [9] was roughly 40 PLA foci per MEF.

B2: POLD1 (the catalytic and PCNA-binding subunit of Polδ), in MEFs (enzyme, mouse (endogenous in MEFs), UniProt P52431 1-1105, looked up)
chain: MDCKRRQGPGPGVPPKRARGHLWDEDEPSPSQFEANLALLEEIEAENRLQEAEEELQLPPEGTVGGQFSTADIDPRWRRPTLRALDPSTEPLIFQQLEIDHYVGSAPPLPEGPLPSRNSVPILRAFGVTDEGFSVCCHIQGFAPYFYTPAPPGFGAEHLSELQQELNAAISRDQRGGKELSGPAVLAIELCSRESMFGYHGHGPSPFLRITLALPRLMAPARRLLEQGVRVPGLGTPSFAPYEANVDFEIRFMVDADIVGCNWLELPAGKYVRRAEKKATLCQLEVDVLWSDVISHPPEGQWQRIAPLRVLSFDIECAGRKGIFPEPERDPVIQICSLGLRWGEPEPFLRLALTLRPCAPILGAKVQSYEREEDLLQAWADFILAMDPDVITGYNIQNFDLPYLISRAQALKVDRFPFLGRVTGLRSNIRDSSFQSRQVGRRDSKVISMVGRVQMDMLQVLLREHKLRSYTLNAVSFHFLGEQKEDVQHSIITDLQNGNEQTRRRLAVYCLKDAFLPLRLLERLMVLVNNVEMARVTGVPLGYLLTRGQQVKVVSQLLRQAMRQGLLMPVVKTEGSEDYTGATVIEPLKGYYDVPIATLDFSSLYPSIMMAHNLCYTTLLRPGAAQKLGLKPDEFIKTPTGDEFVKSSVRKGLLPQILENLLSARKRAKAELAQETDPLRRQVLDGRQLALKVSANSVYGFTGAQVGKLPCLEISQSVTGFGRQMIEKTKQLVESKYTVENGYDANAKVVYGDTDSVMCRFGVSSVAEAMSLGREAANWVSSHFPSPIRLEFEKVYFPYLLISKKRYAGLLFSSRSDAHDKMDCKGLEAVRRDNCPLVANLVTSSLRRILVDRDPDGAVAHAKDVISDLLCNRIDISQLVITKELTRAAADYAGKQAHVELAERMRKRDPGSAPSLGDRVPYVIIGAAKGVAAYMKSEDPLFVLEHSLPIDTQYYLEQQLAKPLLRIFEPILGEGRAESVLLRGDHTRCKTVLTSKVGGLLAFTKRRNCCIGCRSVIDHQGAVCKFCQPRESELYQKEVSHLNALEERFSRLWTQCQRCQGSLHEDVICTSRDCPIFYMRKKVRKDLEDQERLLQRFGPPGPEAW
notes: POLD1, catalytic subunit of DNA polymerase delta, mouse, endogenous in MEFs; source: endogenous, mouse embryonic fibroblasts (fixed cells)
In the case of B2, the “PLA foci per MEF” value [9] is reported as roughly 40 PLA foci per MEF, the “PLA foci per MEF” value [10] is reported as less than 5 PLA foci per MEF and the PLA foci per MEF (PLA foci per MEF) [11] is reported as 20. It also gave an FRET signal (corrected FRET intensity at PCNA foci) [12] of 20.1.

Reference: doi:10.1101/2025.10.06.680735, “JMJD1B-mediated FEN1 demethylation allows timely switching of Okazaki fragment maturation core enzymes to avoid mutagenic flap ligation by PARP1-LIG3” (bioRxiv, 2025)
